Assay results from US20180319873A1 (TAIPEI MEDICAL UNIVERSITY, published 2018).

T1: His-CaENO1 (recombinant Candida albicans alpha-enolase with His tag) (Candida albicans, UniProt P30575 1-440)
T1 construct: Expressed from pQE30-CaENO1 in E. coli BL21, purified on Ni resin, about 49 kDa; also called recombinant CaENO1 protein; purified CaENO1; not shown: His tag from the pQE30 vector
T1 sequence (looked up): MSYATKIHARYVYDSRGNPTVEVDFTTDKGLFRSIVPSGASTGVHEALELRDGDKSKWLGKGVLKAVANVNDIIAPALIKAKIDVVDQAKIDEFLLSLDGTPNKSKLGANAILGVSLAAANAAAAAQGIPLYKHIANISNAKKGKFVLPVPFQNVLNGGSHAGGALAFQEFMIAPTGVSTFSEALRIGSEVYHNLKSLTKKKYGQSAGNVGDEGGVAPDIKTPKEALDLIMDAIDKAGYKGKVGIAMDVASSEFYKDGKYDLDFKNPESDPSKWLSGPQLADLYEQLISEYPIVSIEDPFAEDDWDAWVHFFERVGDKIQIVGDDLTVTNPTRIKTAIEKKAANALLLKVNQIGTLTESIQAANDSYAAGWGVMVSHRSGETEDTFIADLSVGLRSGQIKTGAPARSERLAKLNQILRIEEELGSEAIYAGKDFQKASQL

B1: CaS1 scFv (anti-CaENO1 scFv monoclonal antibody) (scFv)
scFv: ALTQPSSVSANLGGTVKITCSGGSGSYGWYQQKSPGSAPVTVIYSNNQRPSNIPSRFSGSPSGSTGTLTITGVQADDEAVYFCGSRDSSYVGVFGAGTTLTVLGQSSRSSTVTLDESGGGLQTPRGALSLVCKASGFTFIDYGMQWVRQAPGKGLEWVAGIGSSGSSTNYGAAVKGRATISRDDGQSTVRLQLNNLRAEDTGTYYCAKSAGGYCVNGAGCNGGSIDAWGHGTEVIVSS
notes: Chicken scFv from a phage library in pComb3X, expressed in E. coli, purified on Ni Sepharose; also called scFv CaS1; His-CaS1 scFv; not shown: His tag (and HA tag) from the pComb3X vector

Key:
[1] = molecular target: native CaENO1 of Candida albicans (alpha-enolase on the cell surface and in cell lysates) (Candida albicans) (UniProt P30575); experiment: flow cytometry on C. albicans SC 5314 cells, 100 ug antibody (negative control)
[2] = molecular target: T1, His-CaENO1 (recombinant Candida …); experiment: ELISA, serial dilution of CaS1 scFv on coated His-CaENO1
[3] = molecular target: T1, His-CaENO1 (recombinant Candida …); experiment: competitive ELISA, serial dilution of free His-CaENO1 mixed with 1 µg/mL CaS1, then added to coated His-CaENO1; printed as KD of CaS1 scFv
[4] = molecular target: T2, hENO1 (purified recombinant human ENO1) (human, UniProt P06733 1-434, limits assumed); experiment: Western blot on purified ENO1 proteins
T2 construct: not shown: His tag, 'expressed and purified in the same way' as His-CaENO1
T2 sequence (P06733 whole entry): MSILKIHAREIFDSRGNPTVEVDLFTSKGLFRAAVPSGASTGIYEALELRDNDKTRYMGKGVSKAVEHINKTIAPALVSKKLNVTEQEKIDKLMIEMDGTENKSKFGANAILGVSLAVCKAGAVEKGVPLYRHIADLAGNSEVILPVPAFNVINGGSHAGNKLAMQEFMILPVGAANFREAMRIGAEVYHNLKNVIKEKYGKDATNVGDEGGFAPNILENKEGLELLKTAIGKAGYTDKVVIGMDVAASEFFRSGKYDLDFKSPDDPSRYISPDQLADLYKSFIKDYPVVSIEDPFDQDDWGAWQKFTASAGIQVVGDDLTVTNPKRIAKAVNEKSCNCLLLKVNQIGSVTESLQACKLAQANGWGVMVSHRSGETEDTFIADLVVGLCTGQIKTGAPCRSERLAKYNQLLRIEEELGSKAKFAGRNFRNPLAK

[5] = molecular target: T3, mENO1 (purified recombinant mouse ENO1) (mouse, UniProt P17182 1-434, limits assumed); experiment: Western blot on purified ENO1 proteins
T3 construct: not shown: His tag, 'expressed and purified in the same way' as His-CaENO1
T3 sequence (P17182 whole entry): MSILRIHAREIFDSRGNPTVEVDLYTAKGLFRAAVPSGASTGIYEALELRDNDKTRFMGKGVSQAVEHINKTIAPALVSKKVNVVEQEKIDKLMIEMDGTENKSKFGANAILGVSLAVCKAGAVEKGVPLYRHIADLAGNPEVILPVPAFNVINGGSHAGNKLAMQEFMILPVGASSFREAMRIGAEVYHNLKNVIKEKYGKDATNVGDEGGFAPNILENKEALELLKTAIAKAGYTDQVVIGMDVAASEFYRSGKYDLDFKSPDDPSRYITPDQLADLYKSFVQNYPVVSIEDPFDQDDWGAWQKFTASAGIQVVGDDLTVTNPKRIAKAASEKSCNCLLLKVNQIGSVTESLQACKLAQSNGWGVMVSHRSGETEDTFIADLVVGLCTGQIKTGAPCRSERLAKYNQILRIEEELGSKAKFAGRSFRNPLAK

[6] = molecular target: T1, His-CaENO1 (recombinant Candida …); experiment: ELISA, serial dilution of CaS1 scFv on coated recombinant CaENO1; concentration at 50% of OD
[7] = molecular target: T1, His-CaENO1 (recombinant Candida …); experiment: competitive ELISA, serial dilution of free CaENO1 mixed with 1 µg/mL CaS1 scFv, then added to coated CaENO1; printed as KD of CaS1 scFv

Molecule | % FITC fluorescence reaction [1] [%] | Kd [2] [µM] | Kd [3] [µM] | binding result [4] | binding result [5] | Kd [6] [mg/L] | Kd [7] [mg/L]
control scFv (irrelevant scFv) | 23 |  |  |  |  |  | 
B1 |  | 0.0188 | 0.089 | binds | binds | 0.498 | 4.45
